Results published in paper PMC8429771.

Legend:
Actin (Homo sapiens) = Actin (Homo sapiens) (UniProt P60709); details: cited from earlier work
[1] = target: Native bovine (β, γ)-actin, P60712;P63258; assay: TIRFM (KD calculated from koff and kon)
[2] = target: Native bovine (β, γ)-actin, P60712;P63258; assay: TIRFM single-filament re-growth assay after CP washout (mono-exponential fit); details: Cy5-UTRN261N (10 nM), profilin-actin (2 μM), myotrophin/V1 (20 nM) after CP washout
[3] = target: Native bovine (β, γ)-actin, P60712;P63258; assay: single molecule TIRFM assay (linear fit of kobs against CP concentration); details: Cy5-UTRN261N (10 nM), profilin-actin (2 μM), TMR-CP

| Substance | Kd (Actin (Homo sapiens)) | Kd [1] | koff [2] | kon [3] |
| --- | --- | --- | --- | --- |
| Profilin (from UniProt P07737) | 19 nM | – | – | – |
| Murine heterodimeric capping protein (α1, β2), wildtype (from UniProt P47753;P47757-2) αY277V | – | 0.3 nM | 2.6 s^-1·10^-3 | 8.68e+06 M⁻¹ s⁻¹ |
